According to PMC8464072, “YB-1 unwinds mRNA secondary structures in vitro and negatively regulates stress granule assembly in HeLa cells”:

Columns and labels:
FUS RRM = FUS RRM (UniProt P35637 275-385); assay: NMR; CSPs (data not shown); no stem opening at 1.75:1; NMR: 25 mM phosphate pH 6.8, 25 mM KCl, 298 K, 50-100 uM protein; EMSA: 20 mM HEPES pH 7.5, 60 mM KCl, room temperature; melting: 10 mM HEPES-KOH pH 7.6, 130 mM KCl, 30 C; details: protein: recombinant; hairpin, 10 bp stem, 4 nt loop
YB-1C [1] = target: T1, YB-1C (UniProt P67809 1-180); assay: NMR (1H imino and 1H-15N HSQC); multiple peaks at 1:1, lost at 0.25:1; NMR: 25 mM phosphate pH 6.8, 25 mM KCl, 298 K, 50-100 uM protein; EMSA: 20 mM HEPES pH 7.5, 60 mM KCl, room temperature; melting: 10 mM HEPES-KOH pH 7.6, 130 mM KCl, 30 C; details: protein: recombinant; tags: His tag (Ni-NTA); hairpin, 10 bp stem, 4 nt loop
T1 sequence (P67809 1-180): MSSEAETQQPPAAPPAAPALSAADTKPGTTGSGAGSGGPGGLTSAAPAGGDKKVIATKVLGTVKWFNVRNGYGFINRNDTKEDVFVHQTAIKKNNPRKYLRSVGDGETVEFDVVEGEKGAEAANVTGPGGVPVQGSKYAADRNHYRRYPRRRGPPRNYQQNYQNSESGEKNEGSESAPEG

YB-1C [2] = target: T1, YB-1C; assay: NMR (1H-15N HSQC); single peaks; NMR: 25 mM phosphate pH 6.8, 25 mM KCl, 298 K, 50-100 uM protein; EMSA: 20 mM HEPES pH 7.5, 60 mM KCl, room temperature; melting: 10 mM HEPES-KOH pH 7.6, 130 mM KCl, 30 C; details: protein: recombinant; tags: His tag (Ni-NTA)
YB-1C [3] = target: T1, YB-1C; assay: fluorescence melting; 130 mM KCl, 30 C; 10:1 protein:DNA; NMR: 25 mM phosphate pH 6.8, 25 mM KCl, 298 K, 50-100 uM protein; EMSA: 20 mM HEPES pH 7.5, 60 mM KCl, room temperature; melting: 10 mM HEPES-KOH pH 7.6, 130 mM KCl, 30 C; details: protein: recombinant; tags: His tag (Ni-NTA); label: 5' FAM, 3' BHQ1; hairpin
YB-1 (full length) = YB-1 (full length) (UniProt P67809 1-324); assay: fluorescence melting; 130 mM KCl, 30 C; 10:1 protein:DNA; opening of hairpin; NMR: 25 mM phosphate pH 6.8, 25 mM KCl, 298 K, 50-100 uM protein; EMSA: 20 mM HEPES pH 7.5, 60 mM KCl, room temperature; melting: 10 mM HEPES-KOH pH 7.6, 130 mM KCl, 30 C; details: protein: recombinant, tags: His tag (Ni-NTA), label: 5' FAM, 3' BHQ1
Chain of YB-1 (full length) (P67809 whole entry): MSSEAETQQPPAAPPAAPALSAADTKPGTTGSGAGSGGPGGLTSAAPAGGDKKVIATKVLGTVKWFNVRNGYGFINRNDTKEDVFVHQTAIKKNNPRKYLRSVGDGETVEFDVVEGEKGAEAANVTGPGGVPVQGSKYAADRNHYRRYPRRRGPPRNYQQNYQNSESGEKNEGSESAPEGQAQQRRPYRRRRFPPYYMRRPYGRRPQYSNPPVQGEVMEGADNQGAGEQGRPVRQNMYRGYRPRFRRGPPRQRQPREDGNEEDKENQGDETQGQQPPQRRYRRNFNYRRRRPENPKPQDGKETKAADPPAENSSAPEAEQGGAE

YB-1C [4] = target: T1, YB-1C; assay: NMR (1H-15N HSQC); multiple peaks; NMR: 25 mM phosphate pH 6.8, 25 mM KCl, 298 K, 50-100 uM protein; EMSA: 20 mM HEPES pH 7.5, 60 mM KCl, room temperature; melting: 10 mM HEPES-KOH pH 7.6, 130 mM KCl, 30 C; details: protein: recombinant; tags: His tag (Ni-NTA); hairpin, 10 bp stem, 4 nt loop
YB-1-RK [5] = target: T2, YB-1-RK (UniProt P67809 1-180, R97A;K98A); assay: NMR (1H-15N HSQC); no multiple peaks; stem not destabilized; NMR: 25 mM phosphate pH 6.8, 25 mM KCl, 298 K, 50-100 uM protein; EMSA: 20 mM HEPES pH 7.5, 60 mM KCl, room temperature; melting: 10 mM HEPES-KOH pH 7.6, 130 mM KCl, 30 C; details: protein: recombinant; tags: His tag (Ni-NTA); hairpin, 10 bp stem, 4 nt loop
T2 sequence (P67809 1-180 R97A/K98A): as the sequence (P67809 1-180) above, with R97A, K98A counted along it

YB-1-KY [6] = target: T3, YB-1-KY (UniProt P67809 1-180, K137A;Y138A); assay: as above; details: protein: recombinant; tags: His tag (Ni-NTA); hairpin, 10 bp stem, 4 nt loop
T3 sequence (P67809 1-180 K137A/Y138A): as the sequence (P67809 1-180) above, with K137A, Y138A counted along it

YB-1-RK [7] = target: T2, YB-1-RK; assay: NMR (1H-15N HSQC); CSD binding unaffected vs wild type; NMR: 25 mM phosphate pH 6.8, 25 mM KCl, 298 K, 50-100 uM protein; EMSA: 20 mM HEPES pH 7.5, 60 mM KCl, room temperature; melting: 10 mM HEPES-KOH pH 7.6, 130 mM KCl, 30 C; details: protein: recombinant; tags: His tag (Ni-NTA)
YB-1-KY [8] = target: T3, YB-1-KY; assay: as above; details: protein: recombinant; tags: His tag (Ni-NTA)

Chain of FUS RRM (P35637 275-385): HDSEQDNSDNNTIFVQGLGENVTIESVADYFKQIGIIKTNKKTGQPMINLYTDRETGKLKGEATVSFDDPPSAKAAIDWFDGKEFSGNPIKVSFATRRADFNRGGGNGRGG

B1: ACT-4G DNA stem/loop (structured_DNA)
DNA: ACAGACAGAACCCCTTCTGTCTGT
binding result (FUS RRM): binds
binding result (YB-1C [1]): binds

B2: T10 (ssDNA)
DNA: TTTTTTTTTT
binding result (YB-1C [2]): binds

B3: DNA1 hairpin (structured_DNA)
DNA: GGGGGGGGTTAACCCCCCCC
binding result (YB-1C [3]): binds
binding result (YB-1 (full length)): binds

B4: ACU-4G RNA stem/loop (structured_RNA)
RNA: ACAGACAGAACCCCUUCUGUCUGU
binding result (YB-1C [4]): binds
binding result (YB-1-RK [5]): binds
binding result (YB-1-KY [6]): binds

B5: A10 (ssDNA)
DNA: AAAAAAAAAA
binding result (YB-1C [2]): binds

B6: C10 (ssDNA)
DNA: CCCCCCCCCC
binding result (YB-1C [2]): binds
binding result (YB-1-RK [7]): binds
binding result (YB-1-KY [8]): binds
